In patent US20180369322A1:

Tests used:
monkey plasma proteins = test: equilibrium dialysis, drug at 10 and 100 µM, monkey plasma
human plasma proteins = test: equilibrium dialysis, drug at 10 and 100 µM, human plasma
rat plasma proteins = test: equilibrium dialysis, drug at 10 and 100 µM, rat plasma

in vitro plasma protein binding (monkey plasma proteins): > 99.9%
in vitro plasma protein binding (human plasma proteins): > 99.9%
in vitro plasma protein binding (rat plasma proteins): > 99.9%
Substance: R5000 (peptide)
